Source: patent US20200199081

What was measured:
[1] = molecular target: HA-tagged NRASQ61R (HA-NRASQ61R)
[2] = molecular target: HA-tagged wild-type NRAS (HA-NRASWT)

B1: Flag-tagged STK19D89N (protein)
chain: MQKWFSAFDDAIIQRQWRANPSRGGGGVSFTKEVDTNVATGAPPRRQRVPGRACPWREPIRGRRGARPGGGDAGGTPGETVRHCSAPENPIFRFSSLHSYPFPGTIKSRDMSWKRHHLIPETFGVKRRRKRGPVESDPLRGEPGSARAAVSELMQLFPRGLFEDALPPIVLRSQVYSLVPDRTVADRQLKELQEQGEIRIVQLGFDLDAHGIIFTEDYRTRVCDCVLKACDGRPYAGAVQKFLASVLPACGDLSFQQDQMTQTFGFRDSEITHLVNAGVLTVRDAGSWWLAVPGAGRFIKYFVKGRQAVLSMVRKAKYRELLLSELLGRRAPVVVRLGLTYHVHDLIGAQLVDCISTTSGTLLRLPET
In the case of B1, the “in vitro kinase assay, phosphorylation of NRAS” value (“in vitro kinase assay … of NRAS” for short) [1] is reported as “phosphorylation of purified recombinant NRAS was enhanced by STK19D89N to a higher extent than by STK19WT” and the “in vitro kinase assay … of NRAS” value [2] is reported as “phosphorylation of purified recombinant NRAS was enhanced by STK19D89N to a higher extent than by STK19WT”.

B2: Flag-tagged STK19 wild type (STK19-Flag) (protein)
chain: MQKWFSAFDDAIIQRQWRANPSRGGGGVSFTKEVDTNVATGAPPRRQRVPGRACPWREPIRGRRGARPGGGDAGGTPGETVRHCSAPEDPIFRFSSLHSYPFPGTIKSRDMSWKRHHLIPETFGVKRRRKRGPVESDPLRGEPGSARAAVSELMQLFPRGLFEDALPPIVLRSQVYSLVPDRTVADRQLKELQEQGEIRIVQLGFDLDAHGIIFTEDYRTRVCDCVLKACDGRPYAGAVQKFLASVLPACGDLSFQQDQMTQTFGFRDSEITHLVNAGVLTVRDAGSWWLAVPGAGRFIKYFVKGRQAVLSMVRKAKYRELLLSELLGRRAPVVVRLGLTYHVHDLIGAQLVDCISTTSGTLLRLPET
B2 was tested, and the “in vitro kinase assay … of NRAS” value (HA-NRASQ61R/S89A) was “mutation of S89 to alanine (S89A) abolished phosphorylation of NRASWT and NRASQ61R”, the “in vitro kinase assay, NRAS preloaded with GDP, GTP or GTPγS” value [2] was “a higher STK19-induced phosphorylation of the GTP- and GTPγS-loaded NRAS than GDP-loaded NRAS” and the “serine phosphorylation of NRAS (immunoblot after NRAS immunoprecipitation, HPMs)” value [2] was “only a marginal increase in phosphorylation of NRASWT was detected”. The “in vitro kinase assay … of NRAS” value (HA-NRASS89A) was “mutation of S89 to alanine (S89A) abolished phosphorylation of NRASWT and NRASQ61R”.

B3: Flag-tagged kinase-dead STK19K317P (protein)
chain: MQKWFSAFDDAIIQRQWRANPSRGGGGVSFTKEVDTNVATGAPPRRQRVPGRACPWREPIRGRRGARPGGGDAGGTPGETVRHCSAPEDPIFRFSSLHSYPFPGTIKSRDMSWKRHHLIPETFGVKRRRKRGPVESDPLRGEPGSARAAVSELMQLFPRGLFEDALPPIVLRSQVYSLVPDRTVADRQLKELQEQGEIRIVQLGFDLDAHGIIFTEDYRTRVCDCVLKACDGRPYAGAVQKFLASVLPACGDLSFQQDQMTQTFGFRDSEITHLVNAGVLTVRDAGSWWLAVPGAGRFIKYFVKGRQAVLSMVRKAPYRELLLSELLGRRAPVVVRLGLTYHVHDLIGAQLVDCISTTSGTLLRLPET
With B3 the “phosphorylated serine levels in NRAS (immunoblot)” value [1] was “The upregulation of phosphorylated serine levels in NRAS was also diminished by overexpression of a kinase-dead STK19 K317P mutant”.
